This data set addresses NKX2.5 homeodomain (C56S) (Homo sapiens, UniProt P52952 137-197, C193S). In words: crystal structure.

The source of these data is article PMC3448007.

NKX2.5 homeodomain (C56S), sequence (P52952 137-197 C193S): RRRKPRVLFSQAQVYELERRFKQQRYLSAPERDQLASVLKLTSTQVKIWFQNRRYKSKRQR

B1: ANF-242 19-bp (dsDNA)
DNA 1: TGAAGTGGGGGCCACTTGA
DNA 2: TCAAGTGGCCCCCACTTCA
For B1, the binding result is on record as “binds”.
